The chains are these.
B3: RSPO1-GFP (ligand, UniProt Q2MKA7 21-263, looked up)
chain: SRGIKGKRQRRISAEGSQACAKGCELCSEVNGCLKCSPKLFILLERNDIRQVGVCLPSCPPGYFDARNPDMNKCIKCKIEHCEACFSHNFCTKCKEGLYLHKGRCYPACPEGSSAANGTMECSSPAQCEMSEWSPWGPCSKKQQLCGFRRGSEERTRRVLHAPVGDHAACSDTKETRRCTVRRVPCPEGQKRRKGGQGRRENANRNLARKESKEAGAGSRRRKGQQQQQQQGTVGPLTSAGPA
notes: Used as conditioned medium; The order of the parts follows the printed name; also called R-spondin 1 GFP fusion; R-spondin; not shown: GFP

The test “RSPO1-GFP” deals with B3. The test can be described thus: cell-based binding assay: RSPO1-GFP conditioned medium for 1 hour on transfected HEK293 cells, immunofluorescence. On the procedure:
(§1) Since ZNRF3 regulates the membrane level of Frizzled proteins, we tested whether R-spondin enhances Wnt signaling through inhibiting ZNRF3. […] To do so, the inventors transiently transfected HEK293 cells with N-terminal Myc-tagged FZD4 (Frizzled 4), or ZNRF3 ECD-TM, or ZNRF3 P103A ECD-TM, then incubated these cells with RSPO1-GFP conditioned medium for 1 hour. We determined the binding of RSPO1-GFP to Myc tagged proteins expressed on the cell surface using immunoflurorescence using anti-GFP and anti-Myc antibodies.

Test [1] addresses T1, Fc-ZNRF3 ECD (extracellular domain, amino acids 56-219 of SEQ ID NO: 1) (human, UniProt Q9ULT6 56-219).
T1 construct: The order of the parts follows the printed name 'Fc-ZNRF3 ECD'; also called purified ZNRF3 extracellular domain; not shown: Fc part
T1 sequence: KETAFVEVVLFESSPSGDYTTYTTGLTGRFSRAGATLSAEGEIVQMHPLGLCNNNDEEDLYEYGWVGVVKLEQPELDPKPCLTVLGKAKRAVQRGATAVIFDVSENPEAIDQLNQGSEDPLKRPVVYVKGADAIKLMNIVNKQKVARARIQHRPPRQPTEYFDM
As to the kind of experiment: ELISA on Fc-ZNRF3 ECD. A general note: An ELISA detects its analyte on a solid surface through an enzyme-linked reagent.

The target of test [2] is T2, ZNRF3 ΔRING (missing amino acids 293-334), stably expressed on HEK293 cells (human, UniProt Q9ULT6 56-936).
T2 construct: No tag is stated for the cell line used in FACS; also called ZNRF3 lacking the RING domain
T2 sequence: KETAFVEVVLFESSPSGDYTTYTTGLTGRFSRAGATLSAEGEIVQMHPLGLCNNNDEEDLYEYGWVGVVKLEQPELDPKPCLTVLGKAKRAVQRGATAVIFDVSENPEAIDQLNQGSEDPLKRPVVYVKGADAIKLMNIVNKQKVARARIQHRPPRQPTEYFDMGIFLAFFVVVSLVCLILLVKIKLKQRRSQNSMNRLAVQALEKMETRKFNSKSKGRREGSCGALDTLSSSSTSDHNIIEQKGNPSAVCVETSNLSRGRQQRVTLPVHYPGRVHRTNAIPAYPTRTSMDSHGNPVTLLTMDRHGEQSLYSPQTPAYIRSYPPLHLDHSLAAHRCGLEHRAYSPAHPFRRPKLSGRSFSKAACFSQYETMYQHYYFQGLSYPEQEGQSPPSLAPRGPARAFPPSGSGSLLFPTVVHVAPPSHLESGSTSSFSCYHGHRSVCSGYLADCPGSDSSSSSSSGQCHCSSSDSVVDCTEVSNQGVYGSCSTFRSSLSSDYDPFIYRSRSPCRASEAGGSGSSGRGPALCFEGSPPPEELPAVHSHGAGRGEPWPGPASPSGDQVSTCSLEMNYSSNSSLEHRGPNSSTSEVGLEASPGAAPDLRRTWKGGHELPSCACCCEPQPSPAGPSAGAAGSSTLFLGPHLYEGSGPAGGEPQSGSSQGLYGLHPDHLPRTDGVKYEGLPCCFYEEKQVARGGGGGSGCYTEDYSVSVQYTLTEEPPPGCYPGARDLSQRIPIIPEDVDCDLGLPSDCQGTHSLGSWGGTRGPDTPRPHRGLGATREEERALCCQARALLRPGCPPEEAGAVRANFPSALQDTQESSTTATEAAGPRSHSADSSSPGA
As to the kind of experiment: FACS on HEK293 cells stably expressing ZNRF3 ΔRING.

Test [3] has as its target T3, N-terminal Myc-tagged FZD4 (Frizzled 4) (UniProt Q9ULV1 37-537, limits assumed).
T3 construct: whole, on cells; On transiently transfected HEK293 cells; not shown: N-terminal Myc tag
T3 sequence (looked up): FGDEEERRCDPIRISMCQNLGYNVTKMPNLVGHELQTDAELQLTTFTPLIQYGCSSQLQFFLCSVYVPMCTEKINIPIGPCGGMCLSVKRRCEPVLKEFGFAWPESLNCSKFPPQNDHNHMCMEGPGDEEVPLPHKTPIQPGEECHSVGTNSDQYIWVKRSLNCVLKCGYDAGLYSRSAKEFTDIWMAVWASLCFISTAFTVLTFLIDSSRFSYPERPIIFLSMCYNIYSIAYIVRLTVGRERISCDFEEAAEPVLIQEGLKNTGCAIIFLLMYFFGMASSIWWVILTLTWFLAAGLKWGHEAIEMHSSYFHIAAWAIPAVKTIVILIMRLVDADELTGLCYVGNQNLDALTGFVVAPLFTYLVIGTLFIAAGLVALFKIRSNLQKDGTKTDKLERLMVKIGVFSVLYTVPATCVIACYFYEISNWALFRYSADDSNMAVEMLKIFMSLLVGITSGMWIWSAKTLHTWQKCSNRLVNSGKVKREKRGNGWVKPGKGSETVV
As to the kind of experiment: cell-based binding assay: RSPO1-GFP conditioned medium for 1 hour on transfected HEK293 cells, immunofluorescence. On the procedure: as §1

B1: ZNRF3 P103A ECD-TM (receptor, not shown: small tags and cut ends)
chain: KETAFVEVVLFESSPSGDYTTYTTGLTGRFSRAGATLSAEGEIVQMHALGLCNNNDEEDLYEYGWVGVVKLEQPELDPKPCLTVLGKAKRAVQRGATAVIFDVSENPEAIDQLNQGSEDPLKRPVVYVKGADAIKLMNIVNKQKVARARIQHRPPRQPTEYFDMGIFLAFFVVVSLVCLILLVKIKLKQRRSQNSMNRLAV
notes: On transiently transfected HEK293 cells, N-terminally Myc-tagged
In the case of B1, the binding result with RSPO1-GFP is “no binding”.

B2: Fab clone Ab2 (Fab, V domains shown)
VH: EVQLVESGGGLVKPGGSLRLSCAASGFTFSDYGIHWVRQAPGKGLEWVGRIKSKTDGGITEYAAPVKGRFTISRDDSKNTLYLQMNSLKTEDTAVYYCARAIYYLEAFDVWGQGTLVTVSS
VL: DIELTQPPSVSVSPGQTASITCSGDSLGSYYVHWYQQKPGQAPVLVIYRNKQRPSGIPERFSGSNSGNTATLTISGTQAEDEADYYCQTYDWMYSSRVFGGGTKLTVLG
notes: also called parental Ab2; ZNRF3 hFab
For the molecule B2, the binding result in test [1] and in test [2] was “binds” in each case.

In the case of B3, the binding result in test [3] is reported as “no binding”.

B4: Fab clone Ab1 (Fab, V domains shown)
VH: QVQLVQSGAEVKKPGASVKVSCKASGYTFTSYHMHWVRQAPGQGLEWMGWINPYTGDTNYAQKFQGRVTMTRDTSISTAYMELSRLRSEDTAVYYCAREKVYMDIWGQGTLVTVSS
VL: DIELTQPPSVSVSPGQTASITCSGDSIPSKYAHWYQQKPGQAPVLVIYGKSHRPSGIPERFSGSNSGNTATLTISGTQAEDEADYYCAAWDLLGDGWVFGGGTKLTVLG
notes: Fab from phage display panning on Fc-ZNRF3 ECD; Light chain Lch-lambda3, heavy chain Hch-VH1B; the heavy chain entry carries C-terminal tags; also called ZNRF3 hFab
As to B4, the binding result in test [1] and in test [2] was “binds” each time.

These data come from patent US20180066067A1 (Novartis, published 2018).
